According to US20110177111A1, “[…] AGAINST STAPHYLOCOCCUS AUREUS BIOFILMS […] WALL-[…]” (UNIVERSITY OF MARYLAND, BALTIMORE, priority 2008, published 2011):
Marks after values point to notes of the source that are not given here.

B1: Glucosaminidase: Purified recombinant S. aureus glucosaminidase (SEQ ID NO:1), one of the two protein components of autolysin AtlA (protein, listed as Staphylococcus aureus)
chain: MAKKFNYKLPSMVALTLVGSAVTAHQVQAAETTQDQTTNKNVLDSNKVKATTEQAKAEVKNPTQNISGTQVYQDPAIVQPKAANKTGNAQVNQKVDTTQVNGDTRATQSTTSNNAKPVTKSTNTTAPKTNNNVTSAGYSLVDDEDDNSENQINPELIKSAAKPAALETQYKAAAPKATPVAPKAKTEATPKVTTFSASAQPRSAAAAPKTSLPKYKPQVNSSINDYIRKNNLKAPKIEEDYTSYFPKYAYRNGVGRPEGIVVHDTANDRSTINGEISYMKNNYQNAFVHAFVDGDRIIETAPTDYLSWGVGAVGNPRFINVEIVHTHDYASFARSMNNYADYAATQLQYYGLKPDSAEYDGNGTVWTHYAVSKYLGGTDHADPHGYLRSHNYSYDQLYDLINEKYLIKMGKVAPWGTQSTTTPTTPSKPSTPSKPSTPSTGKLTVAANNGVAQIKPTNSGLYTTVYDKTGKATNEVQKTFAVSKTATLGNQKFYLVQDYNSGNKFGWVKEGDVVYNTAKSPVNVNQSYSIKPGTKLYTVPWGTSKQVAGSVSGSGNQTFKASKQQQIDKSIYLYGSVNGKSGWVSKAYLVDTAKPTPTPTPKPSTPTTNNKLTVSSLNGVAQINAKNNGLFTTVYDKTGKPTKEVQKTFAVTKEASLGGNKFYLVKDYNSPTLIGWVKQGDVIYNNAKSPVNVMQTYTVKPGTKLYSVPWGTYKQEAGAVSGTGNQTFKATKQQQIDKSIYLYGTVNGKSGWISKAYLAVPAAPKKAVAQPKTAVKAYAVTKPQTTQTVSKIAQVKPNNTGIRASVYEKTAKNGAKYADRTFYVTKERAHGNETYVLLNNTSHNIPLGWFNVKDLNVQNLGKEVKTTQKYTVNRSNNGLSMVPWGTKNQVILTGNNIAQGTFNATKQVSVGKDVYLYGTINNRTGWVNSKDLTAPTAVKPTTSAAKDYNYTYVIKNGNGYYYVTPNSDTAKYSLKAFNEQPFAVVKEQVINGQTWYYGKLSNGKLAWIKSTDLAKELIKYNQIGMTLNQVAQIQAGLQYKPQVQRVPGKWTDANFNDVKHAMDTKRLAQDPALKYQFLRLDQPQNISIDKINQFLKGKGVLENQGAAFNKAAQMYGINEVYLISHALLETGNGTSQLAKGADVVNNKVVTNSNTKYHNVFGIAAYDNDPLREGIKYAKQAGWDTVSKAIVGGAKFIGNSYVKAGQNTLYKMRWNPAHPGTHQYATDVDWANINAKIIKGYYDKIGEVGKYFDIPQYK

Key:
[1] = system: MRSA-M2; assay: Rabbit tibial osteomyelitis model: vaccination, MRSA challenge, then vancomycin therapy; settings: rabbits, 75 μg each antigen per injection
[2] = system: MRSA-M2; assay: Rabbit tibial osteomyelitis (biofilm) infection model: vaccination, then intratibial MRSA-M2 challenge; format: in vivo, Staphylococcus aureus
Experimental: Animals were divided at random into groups.
Production of osteomyelitis. […] The infection was allowed to progress for 14 days.
Analysis of vaccine efficacy. Vaccine efficacy was evaluated in three ways.
Among these antigens, autolysin (AtlA) was one of the most immunoreactive. Because of its reported role in biofilm formation (31, 32) and its up-regulation during early biofilm growth (when an immune response could theoretically eradicate the biofilm), autolysin was tested as a vaccine. Purified recombinant glucosaminidase (one of the two protein components of AtlA) was injected into rabbits (three doses of 10 μg each, 10 days apart) and then animals were challenged using a tibial osteomyelitis infection.
Antibodies elicited by a single antigen vaccine may not provide adequate immunological recognition of the biofilm in vivo to enable complete microbial clearance. […] Therefore, the aforementioned antigens were tested as a multi-component vaccine. To this end, animals were vaccinated with 10 μg of each of four antigens: glucosaminidase, SA0688 (an ABC transporter lipoprotein), SA0037 (a conserved hypothetical protein), and SA0486 (a hypothetical lipoprotein), following the same dosing schedule as above. […] As well, vaccinated animals trended to lower CFU counts and an 88% reduction in bacterial loads in the tibia (FIG. 3A—quadrivalent). However, this reduction in bacterial populations was not statistically significant. Two doses of the combined vaccine at 15 μg each per dose were also studied, wherein increasing the prime and boost may lead to a more robust initial immune response when the biofilm is immature (and thus, enable clearance by the immune response).

| Molecule | Percentage showing clinical signs of infection ([1]; vancomycin 40 mg/kg twice daily for ten days) | Mean radiological score ([1]; vancomycin 40 mg/kg twice daily for ten days from 14 days after challenge, score 0 to 4+) | Mean radiological score ([2]; New Zealand White rabbits, three i.m. doses of 10 μg (each antigen), 10 days apart, 14 days after intratibial MRSA, score 0 to 4+ (Table 2)) | Number cleared ([2]; rabbits cleared of infection, 4 glucosaminidase, 5 multi-component animals, three doses of 10 μg (each antigen)) | % showing clinical signs of infection ([2]; rabbits, three doses of 10 μg (each antigen), non-weight bearing on affected leg, 14 days after MRSA inoculation) | bacteriological signs of infection compared to PBS-vaccinated controls ([2]; rabbits, three doses of 10 μg each, 10 days apart) | Mean CFU/grams bone in affected tibias ([2]; rabbits, three doses of 10 μg, FIG. 1, PBS controls 9.84×10^7) |
| --- | --- | --- | --- | --- | --- | --- | --- |
| CN[C@H](CC(C)C)C(=O)N[C@H]1C(=O)N[C@@H](CC(N)=O)C(=O)N[C@H]2C(=O)N[C@H]3C(=O)N[C@H](C(=O)N[C@H](C(=O)O)c4cc(O)cc(O)c4-c4cc3ccc4O)[C@H](O)c3ccc(c(Cl)c3)Oc3cc2cc(c3O[C@@H]2O[C@H](CO)[C@@H](O)[C@H](O)[C@H]2O[C@H]2C[C@](C)(N)[C@H](O)[C@H](C)O2)Oc2ccc(cc2Cl)[C@H]1O [PBS + vancomycin, vancomycin] | 100% | 2.1 |  |  |  |  |  |
| B1 |  |  | 0.37* | 1 | 0% | did not lead to significant differences | 3.6×10^7 CFU/grams bone |
